Laboratory results reported in US20100211325A1.
Changes are numbered by the printed parent chain. Numbers in names are those of the source.

Tests used:
[1] = molecular target: Laminin 511/521 (LM511/521) (UniProt O15230); assay: cell-based or functional assay
[2] = molecular target: Laminin 511/521 (LM511/521) (UniProt O15230); assay: not given
[3] = molecular target: Laminin 511/521 (LM511/521) (UniProt O15230); assay: ELISA of FIG. 6d, 0.05 nM Lu protein, LM511/521 added, anti-laminin detection
[4] = molecular target: Laminin 511/521 (LM511/521) (UniProt O15230); assay: electron tomography (Protein Tomography) of an equimolar mixture of Lu gpFc and LM511/521
[5] = molecular target: Laminin 511/521 (LM511/521) (UniProt O15230); assay: ELISA, 0.05 nM Lu gpFc captured by anti-human Fc, 5 nM LM511/521, anti-laminin detection
[6] = molecular target: Laminin 511/521 (LM511/521) (UniProt O15230); assay: SPR (Biacore) of FIG. 6e, 100 µl injection of 10 nM LM511/521 at 30 µl/min
[7] = molecular target: Laminin 511/521 (LM511/521) (UniProt O15230); assay: ELISA of FIG. 3c, 0.05 nM Lu gpFc captured by anti-Fc, LM511/521 added, anti-laminin detection
[8] = molecular target: Laminin 511/521 (LM511/521) (UniProt O15230); assay: SPR (Biacore X), Lu gpFc captured on protein A chip (40 RU), 100 µl injection of 10 nM LM511/521, total change in RU
[9] = molecular target: Laminin 511/521 (LM511/521) (UniProt O15230); assay: SPR (Biacore), Lu protein captured, 10 nM LM511/521, against native Lu gp or D1+2+3+4
[10] = molecular target: Laminin 511/521 (LM511/521) (UniProt O15230); assay: ELISA, Lu protein captured, 5 nM LM511/521, against native Lu gp or D1+2+3+4

B1: Human Lutheran glycoprotein on cells (K562 transfectant expressing Lu gp; late stage erythroblasts) (receptor)
chain: EVRLSVPPLVEVMRGKSVILDCTPTGTHDHYMLEWFLTDRSGARPRLASAEMQGSELQVTMHDTRGRSPPYQLDSQGRLVLAEAQVGDERDYVCVVRAGAAGTAEATARLNVFAKPEATEVSPNKGTLSVMEDSAQEIATCNSRNGNPAPKITWYRNGQRLEVPVEMNPEGYMTSRTVREASGLLSLTSTLYLRLRKDDRDASFHCAAHYSLPEGRHGRLDSPTFHLTLHYPTEHVQFWVGSPSTPAGWVREGDTVQLLCRGDGSPSPEYTLFRLQDEQEEVLNVNLEGNLTLEGVTRGQSGTYGCRVEDYDAADDVQLSKTLELRVAYLDPLELSEGKVLSLPLNSSAVVNCSVHGLPTPALRWTKDSTPLGDGPMLSLSSITFDSNGTYVCEASLPTVPVLSRTQNFTLLVQGSPELKTAEIEPKADGSWREGDEVTLICSARGHPDPKLSWSQLGGSPAEPIPGRQGWVSSSLTLKVTSALSRDGISCEASNPHGNKRHVFHFGTVSPQTSQAGVAVMAVAVSVGLLLLVVAVFYCVRRKGGPCCRQRREKGAPPPGEPGLSHSGSEQPEQTGLLMGGASGGARGGSGGFGDEC
[1]
  cell adhesion assay: % of cells bound to coated laminin: 70 to 85%

B2: Native Lu gpFc fusion protein (five extracellular domains of human Lutheran glycoprotein fused to Fc) (Fc fusion, not shown: a dimerising Fc or GST)
chain: EVRLSVPPLVEVMRGKSVILDCTPTGTHDHYMLEWFLTDRSGARPRLASAEMQGSELQVTMHDTRGRSPPYQLDSQGRLVLAEAQVGDERDYVCVVRAGAAGTAEATARLNVFAKPEATEVSPNKGTLSVMEDSAQEIATCNSRNGNPAPKITWYRNGQRLEVPVEMNPEGYMTSRTVREASGLLSLTSTLYLRLRKDDRDASFHCAAHYSLPEGRHGRLDSPTFHLTLHYPTEHVQFWVGSPSTPAGWVREGDTVQLLCRGDGSPSPEYTLFRLQDEQEEVLNVNLEGNLTLEGVTRGQSGTYGCRVEDYDAADDVQLSKTLELRVAYLDPLELSEGKVLSLPLNSSAVVNCSVHGLPTPALRWTKDSTPLGDGPMLSLSSITFDSNGTYVCEASLPTVPVLSRTQNFTLLVQGSPELKTAEIEPKADGSWREGDEVTLICSARGHPDPKLSWSQLGGSPAEPIPGRQGWVSSSLTLKVTSALSRDGISCEASNPHGNKRHVFHFGTVSPQTSQA
[2]
  Kd: 7.9 nM
  koff: 0.0126 s⁻¹
  kon: 1.6e+06 M⁻¹ s⁻¹
[3]
  OD450: 0.99 OD450
[4]
  % of LM511/521 molecules bound to Lu gpFc: 50 to 60%
[5]
  ELISA % of native Lu gpFc: 100%
[6]
  total change in RU: 129 RU
[7]
  OD450: 0.95 OD450
[8]
  Biacore Δ RUs: 115 RU

B3: Lu gpFc E180A (Fc fusion, not shown: a dimerising Fc or GST)
chain: B2 chain with E180A
[5]
  ELISA % of native Lu gpFc: 104%
[8]
  Biacore Δ RUs: 78.3 RU

B4: Lu gpFc E132A/D133A (Fc fusion, not shown: a dimerising Fc or GST)
chain: B2 chain with E132A, D133A
[5]
  ELISA % of native Lu gpFc: 69.4%
[8]
  Biacore Δ RUs: 57.3 RU

B5: Lu gpFc domain deletion protein D1+2+3b (domains 1, 2 and 3, ending L354EL-…-Fc) (Fc fusion, not shown: a dimerising Fc or GST)
chain: EVRLSVPPLVEVMRGKSVILDCTPTGTHDHYMLEWFLTDRSGARPRLASAEMQGSELQVTMHDTRGRSPPYQLDSQGRLVLAEAQVGDERDYVCVVRAGAAGTAEATARLNVFAKPEATEVSPNKGTLSVMEDSAQEIATCNSRNGNPAPKITWYRNGQRLEVPVEMNPEGYMTSRTVREASGLLSLTSTLYLRLRKDDRDASFHCAAHYSLPEGRHGRLDSPTFHLTLHYPTEHVQFWVGSPSTPAGWVREGDTVQLLCRGDGSPSPEYTLFRLQDEQEEVLNVNLEGNLTLEGVTRGQSGTYGCRVEDYDAADDVQLSKTLELRVAYLNSPQTSQA
[9]
  % of the binding of native Lu gp (Biacore): 42%
[10]
  % of the binding of native Lu gp (ELISA): 68%
